Test results from patent US20120094909A1 (Bristol-Myers Squibb, published 2012).

Tests used:
[1] = target: T1, rhesus serum albumin (rhesus, UniProt Q28522 17-600); assay: kinetic binding analysis in HBS-P buffer, 37 °C
T1 construct: also called RhSA

[2] = target: T2, human serum albumin (human, UniProt P02768 25-609); assay: kinetic binding analysis in HBS-P buffer, 37 °C
T2 construct: also called HSA

[3] = target: T1, rhesus serum albumin; assay: kinetic binding analysis in MES buffer, pH 5.5
[4] = target: T2, human serum albumin; assay: kinetic binding analysis in MES buffer, pH 5.5
[5] = target: T1, rhesus serum albumin; assay: kinetic binding analysis in MES buffer, pH 7.4
[6] = target: T2, human serum albumin; assay: kinetic binding analysis in MES buffer, pH 7.4
[7] = target: T3, murine serum albumin (mouse, UniProt P07724 25-608); assay: kinetic binding analysis in HBS-P buffer, 25 °C
T3 construct: also called MuSA; Mouse

[8] = target: T1, rhesus serum albumin; assay: kinetic binding analysis in HBS-P buffer, 25 °C
[9] = target: T2, human serum albumin; assay: kinetic binding analysis in HBS-P buffer, 25 °C

T1 sequence (Q28522 17-600 limits assumed): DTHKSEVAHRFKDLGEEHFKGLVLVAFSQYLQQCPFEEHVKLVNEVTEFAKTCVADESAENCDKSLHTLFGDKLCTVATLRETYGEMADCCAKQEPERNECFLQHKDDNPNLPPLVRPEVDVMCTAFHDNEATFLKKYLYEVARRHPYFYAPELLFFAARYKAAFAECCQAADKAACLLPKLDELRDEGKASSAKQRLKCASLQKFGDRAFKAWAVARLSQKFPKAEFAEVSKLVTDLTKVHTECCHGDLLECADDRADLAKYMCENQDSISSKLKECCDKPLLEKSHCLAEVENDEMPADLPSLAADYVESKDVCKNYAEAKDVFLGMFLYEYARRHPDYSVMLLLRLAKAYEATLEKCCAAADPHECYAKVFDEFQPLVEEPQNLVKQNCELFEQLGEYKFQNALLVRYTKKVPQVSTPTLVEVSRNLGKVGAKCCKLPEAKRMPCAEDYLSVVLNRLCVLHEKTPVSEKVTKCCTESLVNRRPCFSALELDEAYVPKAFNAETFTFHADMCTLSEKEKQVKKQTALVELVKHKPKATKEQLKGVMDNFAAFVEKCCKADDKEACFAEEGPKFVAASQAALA
T2 sequence (P02768 25-609 limits assumed): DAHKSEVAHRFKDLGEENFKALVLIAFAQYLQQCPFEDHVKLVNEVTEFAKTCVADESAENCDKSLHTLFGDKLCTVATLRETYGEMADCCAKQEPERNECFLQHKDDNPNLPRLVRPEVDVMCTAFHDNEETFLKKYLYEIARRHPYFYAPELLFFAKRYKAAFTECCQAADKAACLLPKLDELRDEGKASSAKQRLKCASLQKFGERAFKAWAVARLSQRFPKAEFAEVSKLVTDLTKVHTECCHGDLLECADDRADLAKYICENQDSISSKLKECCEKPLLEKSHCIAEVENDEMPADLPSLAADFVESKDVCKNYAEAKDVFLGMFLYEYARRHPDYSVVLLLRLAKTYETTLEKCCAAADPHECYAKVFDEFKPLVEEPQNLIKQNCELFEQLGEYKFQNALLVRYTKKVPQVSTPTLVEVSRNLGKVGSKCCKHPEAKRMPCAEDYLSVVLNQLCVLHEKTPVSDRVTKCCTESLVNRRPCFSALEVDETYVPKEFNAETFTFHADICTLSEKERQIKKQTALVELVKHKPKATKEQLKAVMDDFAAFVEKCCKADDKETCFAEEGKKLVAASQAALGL

- Kd [1]: 977 nM
- koff [1]: 0.0185 s⁻¹
- kon [1]: 18900 M⁻¹ s⁻¹
- Kd [2]: 24.1 nM
- koff [2]: 0.000815 s⁻¹
- kon [2]: 33800 M⁻¹ s⁻¹
- Kd [3]: 359 nM
- koff [3]: 0.00272 s⁻¹
- kon [3]: 7570 M⁻¹ s⁻¹
- Kd [4]: 28.6 nM
- koff [4]: 0.00027 s⁻¹
- kon [4]: 9440 M⁻¹ s⁻¹
- Kd [5]: 479 nM
- koff [5]: 0.00295 s⁻¹
- kon [5]: 6160 M⁻¹ s⁻¹
- Kd [6]: 41.9 nM
- koff [6]: 0.000388 s⁻¹
- kon [6]: 9260 M⁻¹ s⁻¹
- binding result [7]: no binding (tested: up to 1 µM)
- Kd [8]: 580 nM
- koff [8]: 0.00378 s⁻¹
- kon [8]: 6600 M⁻¹ s⁻¹
- Kd [9]: 55.3 nM
- koff [9]: 0.000443 s⁻¹
- kon [9]: 8210 M⁻¹ s⁻¹
B1: SABA1.2 (designed binder)
chain: MGVSDVPRDLEVVAATPTSLLISWHSYYEQNSYYRITYGETGGNSPVQEFTVPYSQTTATISGLKPGVDYTITVYAVYGSKYYYPISINYRTEIEDEDEDEDED
notes: It has no His tag; also called "core 1" 10Fn3 comprising an (ED)5 extension
